Experimental data taken from US20180087039A1.
No end group written: not given here.

Biological target: fibrinogen (free fibrinogen in rat plasma) (rat) (UniProt P06399)
Assay: cell-based or functional assay

For RTLAFVRFKKKAAVV-{K(lauroyl)-NH2} (also: self-assembled nanofiber) [RTL PA nanofiber (…(K)-C12 peptide amphiphile)], the free fibrinogen level in plasma after incubation ex vivo with RTL PA (80 µM) was < 36 mg/dL.
